Data as given in US11278600B2, “Human alpha-galactosidase variants” (Codexis, Inc., priority 2014, dated 2022).

How the values were obtained:
Format in all cases: biochemical
[1] = HTP-analysis of supernatants pretreated with base (MUGal hydrolysis); conditions: challenge at pH 7.6; activity of the variant/activity of Rd2BB (SEQ ID NO: 10); yeast culture supernatant
Outline: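 Fluorescence of released 4-MU (Ex 355 nm, Em 448 nm) after carbonate quench reports MUGal hydrolysis by GLA variants secreted from INVSc1 yeast. Before the acidic (pH 4.3-4.8) 30-180 min reaction at 37° C, supernatants had been pre-incubated at pH 7.0-9.7 for 1-18 h at 37° C.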

[2] = HTP-analysis of supernatants pretreated with acid (MUGal hydrolysis); conditions: challenge at pH 4.2; activity of the variant/activity of Rd2BB (SEQ ID NO: 10); yeast culture supernatant
Outline: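 MUGal hydrolysis was tracked by fluorescence (Ex 355 nm, Em 448 nm) after a 30-180 min reaction at 37° C. in pH 4.8 McIlvaine/citrate buffer, stopped with 1 M sodium carbonate. Beforehand, yeast (INVSc1) culture supernatants carrying GLA variants were held 1-3 h at 37° C. in acidic McIlvaine buffer, pH 3.3-4.3.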

[3] = HTP-analysis of supernatants pretreated with bovine serum (MUGal hydrolysis); conditions: activity of the variant/activity of Rd2BB (SEQ ID NO: 10), yeast culture supernatant
Outline: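 Yeast INVSc1 culture supernatants containing secreted GLA variants were mixed with bovine serum (20:80) and held 1 h at 37° C. Serum-treated samples then reacted with MUGal (4 mM stock) in citrate/McIlvaine buffer (pH 4.3/4.8) for 180 min at 37° C., were quenched with sodium carbonate, and read by fluorescence (Ex 355, Em 448 nm).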

[4] = HTP-analysis of yeast culture supernatants, no challenge (MUGal hydrolysis); conditions: activity of the variant/activity of Rd2BB (SEQ ID NO: 10), yeast culture supernatant
Outline: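 Activity read as 4-methylumbelliferyl α-D-galactopyranoside hydrolysis: fluorescence (355/448 nm) after sodium carbonate stop, following 30-180 min at 37° C with 2 mM MUGal stock at pH 4.6–4.8. Enzyme source is unchallenged culture supernatant of INVSc1 yeast expressing GLA variants, grown 66-84 h at 30° C.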

B1: 255 (protein)
chain: LDNGLARTPTMGWLHWERFMCNLDCQEEPDSCISEKLFMEMAELMVSEGWKDAGYEYLCIDDCWMAPQRDSEGRLQADPQRFPHGIRQLANYVHSKGLKFGIYADVGNKTCAGFPGSFGYYDIDAQTFADWGVDLLKFDGCYCDSLENLADGYKHMSLALNRTGRSIVYSCEWPLYMWPFQKPNYTEIRQYCNHWRNFADIDDSWASVKSILDWTSFNQEKIVDVAGPGGWNDPDMLVIGNFGLSWDQQVTQMALWAIMAAPLFMSNDLRHISPQAKALLQDKDVIAINQDPLGKQGYQLRKGDNFEVWERPLSGLAWAVAIINRQEIGGPRSYTIAVASLGDGVACNPACFITQLLPVKRKLGLYEWTSRLRSHVNPTGTVLLQLENTMQMSLKDLL
modifications: Synthetic Polypeptide sequence of Variant No. 255 of mature Human GLA
[1]
  Relative Activity of GLA Variants After Challenge at pH 7.6: +++ (+++ = >2.5 relative activity over Rd2BB (SEQ ID NO: 10))
[2]
  Relative Activity of GLA Variants After Challenge at pH 4.2: +++ (+++ = >2.5 relative activity over Rd2BB (SEQ ID NO: 10))
[3]
  Relative Activity of GLA Variants After Challenge with Serum: ++ (++ = 1.5 to 2.5 relative activity over Rd2BB (SEQ ID NO: 10))
[4]
  Relative Activity of GLA Variants After No Challenge (NC): +++ (+++ = >2.5 relative activity over Rd2BB (SEQ ID NO: 10))

B2: 261 (protein)
chain: LDNGLARTPTMGWLHWERFMCNLDCQEEPDSCISEKLFMEMAELMVSEGWKDAGYEYLCIDDCWMAPQRDSEGRLQADPQRFPHGIRQLANYVHSKGLKFGIYADVGNKTCAGFPGSFGYYDIDAQTFADWGVDLLKFDGCYCDSLENLADGYKHMSLALNRTGRSIVYSCEWPLYMWPFQKPNYTEIRQYCNHWRNFADIDDSWASIKSILDWTSFNQEKIVDVAGPGGWNDPDMLVIGNFGLSWDQQVTQMALWAIMAAPLFMSNDLRHISPQAKALLQDKDVIAINQDPLGKQGYQLRQGDNFEVWERPLSGLAWAVAVINRQEIGGPRSYTIAVASLGDGVACNPACFITQLLPVKRKLGFYEWTSRLRSHVNPTGTVLLQLENTMQMSLKDLL
modifications: Synthetic Polypeptide sequence of Variant No. 261 of mature Human GLA
[1]
  Relative Activity of GLA Variants After Challenge at pH 7.6: ++ (++ = 1.5 to 2.5 relative activity over Rd2BB (SEQ ID NO: 10))
[2]
  Relative Activity of GLA Variants After Challenge at pH 4.2: ++ (++ = 1.5 to 2.5 relative activity over Rd2BB (SEQ ID NO: 10))
[3]
  Relative Activity of GLA Variants After Challenge with Serum: + (+ = 0.5 to 1.5 relative activity over Rd2BB (SEQ ID NO: 10))
[4]
  Relative Activity of GLA Variants After No Challenge (NC): ++ (++ = 1.5 to 2.5 relative activity over Rd2BB (SEQ ID NO: 10))

B3: 260 (protein)
chain: LDNGLARTPTMGWLHWERFMCNLDCQEEPDSCISEKLFMEMAELMVSEGWKDAGYEYLCIDDCWMAPQRDSEGRLQADPQRFPHGIRQLANYVHSKGLKFGIYADVGNKTCAGFPGSFGYYDIDAQTFADWGVDLLKFDGCYCDSLENLADGYKHMSLALNRTGRSIVYSCEWPLYMWPFQKPNYTEIRQYCNHWRNFADIDDSWASIKSILDWTSFNQERIVDVAGPGGWNDPDMLVIGNFGLSWDQQVTQMALWAIMAAPLFMSNDLRHISPQAKALLQDKDVIAINQDPLGKQGYQLRQGDNFEVWERPLSGLAWAVAMINRQEIGGPRSYTIAVASLGKGVACNPACFITQLLPVKRKLGLYEWTSRLKSHVNPTGTVLLQLENTMQMSLKDLL
modifications: Synthetic Polypeptide sequence of Variant No. 260 of mature Human GLA
[1]
  Relative Activity of GLA Variants After Challenge at pH 7.6: + (+ = 0.5 to 1.5 relative activity over Rd2BB (SEQ ID NO: 10))
[2]
  Relative Activity of GLA Variants After Challenge at pH 4.2: + (+ = 0.5 to 1.5 relative activity over Rd2BB (SEQ ID NO: 10))
[3]
  Relative Activity of GLA Variants After Challenge with Serum: + (+ = 0.5 to 1.5 relative activity over Rd2BB (SEQ ID NO: 10))
[4]
  Relative Activity of GLA Variants After No Challenge (NC): + (+ = 0.5 to 1.5 relative activity over Rd2BB (SEQ ID NO: 10))

B4: 258 (protein)
chain: LDNGLARTPTMGWLHWERFMCNLDCQEEPDSCISEKLFMEMAELMVSEGWKDAGYEYLCIDDCWMAPQRDSEGRLQADPQRFPHGIRQLANYVHSKGLKFGIYADVGNKTCAGFPGSFGYYDIDAQTFADWGVDLLKFDGCYCDSLENLADGYKHMSLALNRTGRSIVYSCEWPLYMWPFQKPNYTEIRQYCNHWRNFADIDDSWASVKSILDWTSFNQETIVDVAGPGGWNDPDMLVIGNFGLSWNQQVTQMALWAIMAAPLFMSNDLRHISPQAKALLQDKDVIAINQDPLGKQGYQLRKGDNFEVWERPLSGLAWAVAIINRQEIGGPRSYTIAVASLGDGVACNPACFITQLLPVKRKLGFYEWTSRLRSHVNPTGTVLLQLENTMQMSLKDLL
modifications: Synthetic Polypeptide sequence of Variant No. 258 of mature Human GLA
[1]
  Relative Activity of GLA Variants After Challenge at pH 7.6: +++ (+++ = >2.5 relative activity over Rd2BB (SEQ ID NO: 10))
[2]
  Relative Activity of GLA Variants After Challenge at pH 4.2: ++ (++ = 1.5 to 2.5 relative activity over Rd2BB (SEQ ID NO: 10))
[3]
  Relative Activity of GLA Variants After Challenge with Serum: ++ (++ = 1.5 to 2.5 relative activity over Rd2BB (SEQ ID NO: 10))
[4]
  Relative Activity of GLA Variants After No Challenge (NC): +++ (+++ = >2.5 relative activity over Rd2BB (SEQ ID NO: 10))

B5: 256 (protein)
chain: LDNGLARTPTMGWLHWERFMCNLDCQEEPDSCISEKLFMEMAELMVSEGWKDAGYEYLCIDDCWMAPQRDSEGRLQADPQRFPHGIRQLANYVHSKGLKFGIYADVGNKTCAGFPGSFGYYDIDAQTFADWGVDLLKFDGCYCDSLENLADGYKHMSLALNRTGRSIVYSCEWPLYMWPFQKPNYTEIRQYCNHWRNFADIDDSWASVKSILDWTSFNQEKIVDVAGPGGWNDPDMLVIGNFGLSWDQQVTQMALWAIMAAPLFMSNDLRHISPQAKALLQDKDVIAINQDPLGKQGYQLRKGDNFEVWERPLSGLAWAVAVINRQEIGGPRSYTIAVASLGDGVACNPACFITQLLPVKRKLGLYEWTSRLRSHVNPTGTVLLQLENTMQMSLKDLL
modifications: Synthetic Polypeptide sequence of Variant No. 256 of mature Human GLA
[1]
  Relative Activity of GLA Variants After Challenge at pH 7.6: +++ (+++ = >2.5 relative activity over Rd2BB (SEQ ID NO: 10))
[2]
  Relative Activity of GLA Variants After Challenge at pH 4.2: +++ (+++ = >2.5 relative activity over Rd2BB (SEQ ID NO: 10))
[3]
  Relative Activity of GLA Variants After Challenge with Serum: +++ (+++ = >2.5 relative activity over Rd2BB (SEQ ID NO: 10))
[4]
  Relative Activity of GLA Variants After No Challenge (NC): ++ (++ = 1.5 to 2.5 relative activity over Rd2BB (SEQ ID NO: 10))

B6: 257 (protein)
chain: LDNGLARTPTMGWLHWERFMCNLDCQEEPDSCISEKLFMEMAELMVSEGWKDAGYEYLCIDDCWMAPQRDSEGRLQADPQRFPHGIRQLANYVHSKGLKFGIYADVGNKTCAGFPGSFGYYDIDAQTFADWGVDLLKFDGCYCDSLENLADGYKHMSLALNRTGRSIVYSCEWPLYMWPFQKPNYTEIRQYCNHWRNFADIDDSWASVKSILDWTSFNQETIVDVAGPGGWNDPDMLVIGNFGLSWNQQVTQMALWAIMAAPLFMSNDLRHISPQAKALLQDKDVIAINQDPLGKQGYQLRQGDNFEVWERPLSGLAWAVAMINRQEIGGPRSYTIAVASLGDGVACNPACFITQLLPVKRKLGLYEWTSRLRSHVNPTGTVLLQLENTMQMSLKDLL
modifications: Synthetic Polypeptide sequence of Variant No. 257 of mature Human GLA
[1]
  Relative Activity of GLA Variants After Challenge at pH 7.6: ++ (++ = 1.5 to 2.5 relative activity over Rd2BB (SEQ ID NO: 10))
[2]
  Relative Activity of GLA Variants After Challenge at pH 4.2: ++ (++ = 1.5 to 2.5 relative activity over Rd2BB (SEQ ID NO: 10))
[3]
  Relative Activity of GLA Variants After Challenge with Serum: ++ (++ = 1.5 to 2.5 relative activity over Rd2BB (SEQ ID NO: 10))
[4]
  Relative Activity of GLA Variants After No Challenge (NC): ++ (++ = 1.5 to 2.5 relative activity over Rd2BB (SEQ ID NO: 10))

B7: 259 (protein)
chain: LDNGLARTPTMGWLHWERFMCNLDCQEEPDSCISEKLFMEMAELMVSEGWKDAGYEYLCIDDCWMAPQRDSEGRLQADPQRFPHGIRQLANYVHSKGLKFGIYADVGNKTCAGFPGSFGYYDIDAQTFADWGVDLLKFDGCYCDSLENLADGYKHMSLALNRTGRSIVYSCEWPLYMWPFQKPNYTEIRQYCNHWRNFADIDDSWASIKSILDWTSFNQERIVDVAGPGGWNDPDMLVIGNFGLSWNQQVTQMALWAIMAAPLFMSNDLRHISPQAKALLQDKDVIAINQDPLGKQGYQLRQGDNFEVWERPLSGLAWAVAVINRQEIGGPRSYTIAVASLGKGVACNPACFITQLLPVKRKLGLYEWTSRLKSHVNPTGTVLLQLENTMQMSLKDLL
modifications: Synthetic Polypeptide sequence of Variant No. 259 of mature Human GLA
[1]
  Relative Activity of GLA Variants After Challenge at pH 7.6: + (+ = 0.5 to 1.5 relative activity over Rd2BB (SEQ ID NO: 10))
[2]
  Relative Activity of GLA Variants After Challenge at pH 4.2: + (+ = 0.5 to 1.5 relative activity over Rd2BB (SEQ ID NO: 10))
[3]
  Relative Activity of GLA Variants After Challenge with Serum: + (+ = 0.5 to 1.5 relative activity over Rd2BB (SEQ ID NO: 10))
[4]
  Relative Activity of GLA Variants After No Challenge (NC): + (+ = 0.5 to 1.5 relative activity over Rd2BB (SEQ ID NO: 10))
